Assay results: article PMC12489471, “A multi-dentate, cooperative interaction between endo- and exo-ribonucleases within the bacterial RNA degradosome” (Nucleic Acids Research, 2025)
Entries after “also recorded” stand apart in the source; their conditions may differ.

How the values were obtained:
E. coli PNPase = molecular target: T1, E. coli PNPase (E. coli, UniProt P05055 1-711); assay: SEC-MALS; Superdex 200 10/300 Increase, 100 µl at ~1 mg/ml, 25°C; buffer A (50 mM Tris pH 7.5, 100 mM NaCl, 100 mM KCl, 0.01% w/v b-DDM, 1 mM TCEP) or B (A without b-DDM) as Table S2 tells for each sample; the 1:1 ratio is one RNase E segment to one PNPase trimer (expected mass = trimer plus one segment); details: both partners purified
T1 construct: polynucleotide phosphorylase (PNPase), E. coli; also called polynucleotide phosphorylase; full-length PNPase; source: E. coli BL21(DE3), purified (ammonium sulfate, Q, butyl-Sepharose, SEC)
T1 sequence (looked up): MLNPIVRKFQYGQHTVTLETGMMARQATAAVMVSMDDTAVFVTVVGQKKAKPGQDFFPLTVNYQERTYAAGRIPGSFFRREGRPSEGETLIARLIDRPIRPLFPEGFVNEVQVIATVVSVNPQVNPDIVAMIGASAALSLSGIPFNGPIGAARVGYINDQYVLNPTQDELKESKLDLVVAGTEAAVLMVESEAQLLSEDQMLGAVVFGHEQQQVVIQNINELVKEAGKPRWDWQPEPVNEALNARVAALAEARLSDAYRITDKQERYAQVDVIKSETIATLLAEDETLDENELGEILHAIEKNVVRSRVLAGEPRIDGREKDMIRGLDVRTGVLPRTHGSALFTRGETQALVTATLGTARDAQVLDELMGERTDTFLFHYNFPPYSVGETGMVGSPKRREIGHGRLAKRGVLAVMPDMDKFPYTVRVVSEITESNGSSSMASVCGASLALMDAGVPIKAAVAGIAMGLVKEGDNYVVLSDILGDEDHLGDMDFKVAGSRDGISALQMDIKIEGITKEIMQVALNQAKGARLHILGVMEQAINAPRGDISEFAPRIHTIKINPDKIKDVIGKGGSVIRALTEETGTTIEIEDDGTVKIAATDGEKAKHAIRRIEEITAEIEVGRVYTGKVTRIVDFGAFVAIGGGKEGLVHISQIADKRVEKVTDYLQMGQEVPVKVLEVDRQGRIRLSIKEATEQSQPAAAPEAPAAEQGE

PNPase = molecular target: T2, PNPase (Escherichia coli, UniProt P05055); assay type: binding, E. coli
T2 construct: made in house; host or cells: E. coli Evo21(DE3)
T2 sequence (P05055 whole entry, looked up): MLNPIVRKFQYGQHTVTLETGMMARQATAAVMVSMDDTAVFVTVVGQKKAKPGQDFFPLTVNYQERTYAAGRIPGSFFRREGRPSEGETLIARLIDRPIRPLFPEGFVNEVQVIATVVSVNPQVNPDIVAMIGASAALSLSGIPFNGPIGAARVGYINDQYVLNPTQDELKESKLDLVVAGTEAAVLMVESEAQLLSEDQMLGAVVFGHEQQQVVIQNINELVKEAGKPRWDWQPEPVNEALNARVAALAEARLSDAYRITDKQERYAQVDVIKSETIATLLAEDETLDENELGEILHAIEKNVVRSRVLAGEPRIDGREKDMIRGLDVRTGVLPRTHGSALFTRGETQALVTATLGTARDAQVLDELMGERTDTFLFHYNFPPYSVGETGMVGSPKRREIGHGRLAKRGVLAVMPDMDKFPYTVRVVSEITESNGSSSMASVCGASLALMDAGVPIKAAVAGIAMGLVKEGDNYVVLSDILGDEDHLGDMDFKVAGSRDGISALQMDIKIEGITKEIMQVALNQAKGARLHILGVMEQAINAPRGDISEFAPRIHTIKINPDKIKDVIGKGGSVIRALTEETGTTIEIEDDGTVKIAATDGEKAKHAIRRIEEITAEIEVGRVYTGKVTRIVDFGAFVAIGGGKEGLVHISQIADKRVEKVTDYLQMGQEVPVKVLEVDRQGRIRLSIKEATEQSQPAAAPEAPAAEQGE
From the text: Briefly, at the N-terminal of the construct, there is an Hisx6 affinity tag that will be used for affinity purification. Following the Hisx6 tag there is an maltose-binding protein (MBP) tag with a TEV cleavage site to maintain solubility of the peptides. Following the MBP tag the gene encoding the peptide is inserted, and is then followed by intein, a self-cleavable tag, followed by a choline-binding domain, which can be used for an extra step of affinity purification. […] After expression, cells were harvested, resuspended in Lysis Buffer 2 (20 mM Tris–HCl, pH 8.0, 80 mM KCl, 300 mM NaCl, 20 mM Imidazole, 0.5 mM TCEP), and lysed with a cell disruptor (Emulsiflex, Avestin). […] After subsequent rounds of washing with Ni Equilibration Buffer supplemented with, respectively, 0.1% Triton-X, 1 M NaCl, and a final wash in Ni Equilibration Buffer, samples were eluted with Ni Elution Buffer (20 mM Tris–HCl, pH 8.0, 300 mM NaCl, 300 mM imidazole, 0.5 mM TCEP). Enriched fractions were then supplemented with 100 mM β-mercaptoethanol to catalyse intein self-cleavage overnight at room temperature. Treated samples were filtered and loaded on an amylose gravity flow column, equilibrated with Amy Equilibration Buffer (20 mM Tris–HCl, pH 8.0, 20 mM NaCl, 20 mM imidazole, 2 mM β-mercaptoethanol) and after washing, His-tagged TEV protease was applied to the resin and incubated at 4°C for 2 h.
PNPase carrying a C-terminal Hisx6 tag was expressed from pExp-cis-Ec_PNP-CHis vector in E. coli Evo21(DE3) cells, induced with 0.4 mM IPTG, at 18°C overnight. After expression, cells were harvested and resuspended in Lysis Buffer 2 (20 mM Tris–HCl, pH 8.0, 80 mM KCl, 300 mM NaCl, 20 mM imidazole, 0.5 mM TCEP), and lysed with a cell disruptor (Emulsiflex, Avestin). […] After subsequent rounds of washing with equilibration buffer supplemented with 0.1% Triton-X, or 1 M NaCl, the sample was eluted with Ni PNPCHis Elution Buffer (20 mM NaH2PO4, pH 8.0, 300 mM NaCl, 300 mM KCl, 5 mM MgCl2, 300 mM imidazole, pH 7.5, 10 mM β-mercaptoethanol). […] Fractions containing PNPase were run through a HiPrep™ 26/10 Desalting Column (GE Healthcare) and buffer exchanged to Q PNPCHis A (20 mM NaH2PO4, pH 8.0, 30 mM NaCl, 10% glycerol, 0.5 mM TCEP).
Interaction measurements were made using a Biacore T200 instrument (GE) at 25°C. PNPase with a 6xHisTag at the CTD was immobilized on a Series S Sensor Chip NTA (Cytiva) to provide a signal of 5 response units (RU). […] For the SPR analysis of the point mutants, binding to PNPase was measured at four different concentrations (0, 12.5, 25, and 50 nM). All concentrations were run in duplicates. The contact time was 60 s, while the dissociation time was 120 s, at a […] flow rate. […] The chip surface was regenerated with 350 mM EDTA in water, following manufacturer's instructions. Data were processed using the manufacturer’s BIAevaluation software.

B1: RNase E 583-1061, avi-tagged (domain or fragment, E. coli, UniProt P21513 583-1061, looked up)
chain: SGGEETKPTEQPAPKAEAKPERQQDRRKPRQNNRRDRNERRDTRSERTEGSDNREENRRNRRQAQQQTAETRESRQQAEVTEKARTADEQQAPRRERSRRRNDDKRQAQQEAKALNVEEQSVQETEQEERVRPVQPRRKQRQLNQKVRYEQSVAEEAVVAPVVEETVAAEPIVQEAPAPRTELVKVPLPVVAQTAPEQQEENNADNRDNGGMPRRSRRSPRHLRVSGQRRRRYRDERYPTQSPMPLTVACASPELASGKVWIRYPIVRPQDVQVEEQREQEEVHVQPMVTEVPVAAAIEPVVSAPVVEEVAGVVEAPVQVAEPQPEVVETTHPEVIAAAVTEQPQVITESDVAVAQEVAEQAEPVVEPQEETADIEEVVETAEVVVAEPEVVAQPAAPVVAEVAAEVETVAAVEPEVTVEHNHATAPMTRAPAPEYVPEAPRHSDWQRPTFAFEGKGAAGGHTATHHASAAPARPQPVE
notes: The construct is described nowhere in the methods
In the case of B1, the “stoichiometry N” value (E. coli PNPase) is reported as 1.

B2: RNase E 960–1039: RNase E peptide carrying the plausible secondary binding motif β2 (peptide)
chain: VVETAEVVVAEPEVVAQPAAPVVAEVAAEVETVAAVEPEVTVEHNHATAPMTRAPAPEYVPEAPRHSDWQRPTFAFEGKG
modifications: left off: His6, N-terminal, cleaved | MBP, N-terminal, cleaved | intein, C-terminal, cleaved | choline-binding domain, C-terminal, cleaved
For B2, the “binding to PNPase (detected or not)” value (PNPase; pH 7.2) was “does not interact with PNPase; also recorded: no binding was detected”.

B3: RNase E 985-1053: RNase E peptide lacking the terminal Pro-rich motif (peptide)
chain: VAAEVETVAAVEPEVTVEHNHATAPMTRAPAPEYVPEAPRHSDWQRPTFAFEGKGAAGGHTATHHASAA
modifications: left off: His6, N-terminal, cleaved | MBP, N-terminal, cleaved | intein, C-terminal, cleaved | choline-binding domain, C-terminal, cleaved
notes: RNase E peptide lacking the terminal Pro-rich motif
For B3, the “binding compared with the peptide including the region with Arg1056, in words” value (PNPase) was “significantly weaker binding”, the “KD range in words” value (PNPase; pH 7.2) was “high micromolar” and the k a (PNPase; pH 7.2) was 2.94E + 4 1/M s. For the same molecule, the k d (PNPase; pH 7.2) was 0.339 s⁻¹.

B4: RNase E 960-1061 (in the SEC-MALLS sample with PNPase) (domain or fragment, E. coli, UniProt P21513 960-1061, looked up)
chain: VVETAEVVVAEPEVVAQPAAPVVAEVAAEVETVAAVEPEVTVEHNHATAPMTRAPAPEYVPEAPRHSDWQRPTFAFEGKGAAGGHTATHHASAAPARPQPVE
notes: The expected mass of the complex fits one untagged segment of 10,585 Da on a PNPase trimer
In the case of B4, the “stoichiometry N” value (E. coli PNPase) is reported as 1.
